We go through one substance from PMC2661133.

This experiment deals with Anasazi bean lectin (lectin from seeds of Phaseolus vulgaris cv. Anasazi beans) (Phaseolus vulgaris). Briefly: SEC; FPLC-gel filtration on Superdex 200 HR 10/30 calibrated with molecular-mass standards, 20 mM Tris-HCl buffer (pH 7.3); 60 kDa peak set against the 30 kDa band in SDS-PAGE.

In general, stoichiometry N refers to a count of units in the complex or per binding partner. As for “Anasazi bean lectin (lectin from seeds of Phaseolus vulgaris cv. Anasazi beans) (natural protein)”, the stoichiometry N was determined as 2.
